Assays:
[1] = Stability assay in 25% TIDE 2X detergent with DTPA (residual Abz-AGLA-Nba protease activity); format: physicochemical; conditions: 60 min at 32°C; variant residual AGLA activity divided by wild-type residual activity
Summary of the method: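 Thermolysin variant culture supernatants stressed in TIDE 2× detergent, with or without DTPA: 60 min at 32° C or 180 min at 50° C. Residual versus unstressed activity on Abz-AGLA-Nba read kinetically at 25° C (Ex 350/Em 420). Performance index is variant residual activity divided by wild-type thermolysin residual activity.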

[2] = Stability assay in 25% TIDE 2X detergent without DTPA (residual Abz-AGLA-Nba protease activity); format: physicochemical; conditions: 180 min at 50°C; variant residual AGLA activity divided by wild-type residual activity
Description: The stability of thermolysin and variants thereof was measured after incubation under defined conditions in the presence of 25% TIDE® 2× detergent. The initial and residual activity was determined.
MTPs were obtained from Costar (type 9017) and from Greiner (black plate, type 655076). Test Method Unstressed Conditions:
First, 20 μl thermolysin containing culture supernatant was diluted with 180 μl MES assay buffer. Then, 20 μl diluted supernatant was diluted further with 180 μl MES assay buffer. Subsequently 10 μl of this dilution was transferred into 190 μl AGLA-substrate solution in a pre-warmed plate (Greiner 655076) at 25° C. Any air bubbles present were blown away and the plate was measured according to the AGLA protease assay protocol described below.
First, 20 μl of culture supernatant was diluted with 180 μl 27.5% TIDE®+detergent solution and placed in the iEMS shaker. The plate covered with a plate seal was incubated for a total of 60 minutes at 32° C. at 900 rpm. In addition, 20 μl of culture supernatant was diluted with 180 μl 27.5% TIDE®−solution and placed in the iEMS shaker. This plate covered with a plate seal was incubated for a total of 180 minutes at 50° C. at 900 rpm.
Subsequently after the respective incubations, 20 μl of either of these solutions were diluted with 180 μl MES assay buffer and 10 μl of this dilution were diluted with 190 μl AGLA-substrate solution in a pre-warmed plate (Greiner 655076) at 25° C.
Fluorescence measurements were taken at excitation of 350 nm and emission of 420 nm. The spectrofluorometer software calculated the reaction rates (=slope) of the increase in fluorescence for each well to a linearly regressed line of (milli-) RFU/min. The ratio of the residual and initial AGLA activity was used to express the 25% TIDE® 2× stability as follows: Percentage of residual activity=[slope of stressed]*100/[slope of unstressed]
For each sample (thermolysin and variants thereof) the performance index was calculated by dividing the residual activity of the variant by the residual activity of thermolysin. The performance index compared the stability of the variant and the standard thermolysin enzyme (e.g., wild type or parental enzyme), determined under the same conditions.
In these experiments, the liberation of Abz-AG by protease cleavage of Abz-AGLA-Nba was monitored by fluorescence spectrometry (Ex. 350/Em. 420). The rate of appearance of Abz-AG was a measure of proteolytic activity.
The Abz-AGLA-Nba assay solution was prepared by adding 1 ml of the Abz-AGLA-Nba stock to 19 ml MES substrate buffer and mixed well for at least 2 minutes. Subsequently the thermolysin or variants thereof containing culture supernatants were diluted with MES assay buffer to a concentration of 1-6 μg protein per ml.
The assay was performed by adding 10 μl of diluted protease solution to each well, followed by the addition of 190 μl Abz-AGLA-Nba assay solution that was pre-equilibrated for at least 15 minutes at 25° C. The solutions were vigorously mixed, and the liberation of Abz-AG by protease cleavage of Abz-AGLA-Nba was monitored by fluorescence spectrometry at 25° C. in kinetic mode with excitation set at 350 nm and emission set at 420 nm. The rate of appearance of Abz-AG was a measure of proteolytic activity in the samples. The protease activity was expressed as RFU (relative fluorescence units·min^−1).
As described in Example 1, the stability of thermolysin variants was measured by determining the AGLA activity before and after incubation in the presence of TIDE® 2× heavy duty liquid (HDL) detergent at an elevated temperature. The tables contain the relative stability values compared to wild-type thermolysin, which is the quotient of the variant residual activity divided by the wild-type residual activity. A value greater than one indicates higher stability in the presence of detergent. […]

B1: Y151A: single-substitution thermolysin variant (SEQ ID NO:3 numbering) (protein, listed as Geobacillus caldoproteolyticus)
chain: ITGTSTVGVGRGVLGDQKNINTTYSTYYYLQDNTRGNGIFTYDAKYRTTLPGSLWADADNQFFASYDAPAVDAHYYAGVTYDYYKNVHNRLSYDGNNAAIRSSVHYSQGYNNAFWNGSQMVYGDGDGQTFIPLSGGIDVVAHELTHAVTDATAGLIYQNESGAINEAISDIFGTLVEFYANKNPDWEIGEDVYTPGISGDSLRSMSDPAKYGDPDHYSKRYTGTQDNGGVHINSGIINKAAYLISQGGTHYGVSVVGIGRDKLGKIFYRALTQYLTPTSNFSQLRAAAVQSATDLYGSTSQEVASVKQAFDAVGVK
PI (relative stability), 25% TIDE 2X with DTPA [1]: 1.15 | PI (relative stability), 25% TIDE 2X without DTPA [2]: 1.24

B2: Y151C: single-substitution thermolysin variant (SEQ ID NO:3 numbering) (protein, listed as Geobacillus caldoproteolyticus)
chain: ITGTSTVGVGRGVLGDQKNINTTYSTYYYLQDNTRGNGIFTYDAKYRTTLPGSLWADADNQFFASYDAPAVDAHYYAGVTYDYYKNVHNRLSYDGNNAAIRSSVHYSQGYNNAFWNGSQMVYGDGDGQTFIPLSGGIDVVAHELTHAVTDCTAGLIYQNESGAINEAISDIFGTLVEFYANKNPDWEIGEDVYTPGISGDSLRSMSDPAKYGDPDHYSKRYTGTQDNGGVHINSGIINKAAYLISQGGTHYGVSVVGIGRDKLGKIFYRALTQYLTPTSNFSQLRAAAVQSATDLYGSTSQEVASVKQAFDAVGVK
PI (relative stability), 25% TIDE 2X with DTPA [1]: 1.25 | PI (relative stability), 25% TIDE 2X without DTPA [2]: 1.09

B3: T006C: single-substitution thermolysin variant (SEQ ID NO:3 numbering) (protein, listed as Geobacillus caldoproteolyticus)
chain: ITGTSCVGVGRGVLGDQKNINTTYSTYYYLQDNTRGNGIFTYDAKYRTTLPGSLWADADNQFFASYDAPAVDAHYYAGVTYDYYKNVHNRLSYDGNNAAIRSSVHYSQGYNNAFWNGSQMVYGDGDGQTFIPLSGGIDVVAHELTHAVTDYTAGLIYQNESGAINEAISDIFGTLVEFYANKNPDWEIGEDVYTPGISGDSLRSMSDPAKYGDPDHYSKRYTGTQDNGGVHINSGIINKAAYLISQGGTHYGVSVVGIGRDKLGKIFYRALTQYLTPTSNFSQLRAAAVQSATDLYGSTSQEVASVKQAFDAVGVK
PI (relative stability), 25% TIDE 2X with DTPA [1]: 1.03 | PI (relative stability), 25% TIDE 2X without DTPA [2]: 1.07

B4: Y151S: single-substitution thermolysin variant (SEQ ID NO:3 numbering) (protein, listed as Geobacillus caldoproteolyticus)
chain: ITGTSTVGVGRGVLGDQKNINTTYSTYYYLQDNTRGNGIFTYDAKYRTTLPGSLWADADNQFFASYDAPAVDAHYYAGVTYDYYKNVHNRLSYDGNNAAIRSSVHYSQGYNNAFWNGSQMVYGDGDGQTFIPLSGGIDVVAHELTHAVTDSTAGLIYQNESGAINEAISDIFGTLVEFYANKNPDWEIGEDVYTPGISGDSLRSMSDPAKYGDPDHYSKRYTGTQDNGGVHINSGIINKAAYLISQGGTHYGVSVVGIGRDKLGKIFYRALTQYLTPTSNFSQLRAAAVQSATDLYGSTSQEVASVKQAFDAVGVK
PI (relative stability), 25% TIDE 2X with DTPA [1]: 1.23 | PI (relative stability), 25% TIDE 2X without DTPA [2]: 1.17

B5: T049D: single-substitution thermolysin variant (SEQ ID NO:3 numbering) (protein, listed as Geobacillus caldoproteolyticus)
chain: ITGTSTVGVGRGVLGDQKNINTTYSTYYYLQDNTRGNGIFTYDAKYRTDLPGSLWADADNQFFASYDAPAVDAHYYAGVTYDYYKNVHNRLSYDGNNAAIRSSVHYSQGYNNAFWNGSQMVYGDGDGQTFIPLSGGIDVVAHELTHAVTDYTAGLIYQNESGAINEAISDIFGTLVEFYANKNPDWEIGEDVYTPGISGDSLRSMSDPAKYGDPDHYSKRYTGTQDNGGVHINSGIINKAAYLISQGGTHYGVSVVGIGRDKLGKIFYRALTQYLTPTSNFSQLRAAAVQSATDLYGSTSQEVASVKQAFDAVGVK
PI (relative stability), 25% TIDE 2X with DTPA [1]: 1.05 | PI (relative stability), 25% TIDE 2X without DTPA [2]: 1.28
